Results on two substances are retold here after PMC3711130.

The target of assay [1] is His-Tm (wild-type α-tropomyosin homodimer with a histidine tag) (rat). The assay is described as follows: cross-linking.
The target of assay [2] is pyr-actin·WT-Tm·hcTn thin filament (rabbit | rat | human) (UniProt P68135). The assay is described as follows: stopped-flow fluorescence.
For assay [3] the target is unchanged. Description: stopped-flow fluorescence. This is another data set of the same source.
The target of assay [4] is pyr-actin·D175N-Tm·hcTn thin filament (rabbit | rat | human) (UniProt P68135). The assay is described as follows: stopped-flow fluorescence.
Assay [5] concerns the target pyr-actin·WT-E180G-Tm·hcTn thin filament (rabbit | rat | human) (UniProt P68135). Description: stopped-flow fluorescence.
In assay [6] the target is pyr-actin·E180G-Tm·hcTn thin filament (rabbit | rat | human) (UniProt P68135). Description: stopped-flow fluorescence.
The target of assay [7] is pyr-actin·WT-D175N-Tm·hcTn thin filament (rabbit | rat | human) (UniProt P68135). The assay is described as follows: stopped-flow fluorescence.

Like-named read-outs stand apart in the source and are kept apart here.

Sequence of myosin subfragment 1 (native rabbit skeletal) (domain or fragment) (Q28641 whole entry, the tested form may be a part): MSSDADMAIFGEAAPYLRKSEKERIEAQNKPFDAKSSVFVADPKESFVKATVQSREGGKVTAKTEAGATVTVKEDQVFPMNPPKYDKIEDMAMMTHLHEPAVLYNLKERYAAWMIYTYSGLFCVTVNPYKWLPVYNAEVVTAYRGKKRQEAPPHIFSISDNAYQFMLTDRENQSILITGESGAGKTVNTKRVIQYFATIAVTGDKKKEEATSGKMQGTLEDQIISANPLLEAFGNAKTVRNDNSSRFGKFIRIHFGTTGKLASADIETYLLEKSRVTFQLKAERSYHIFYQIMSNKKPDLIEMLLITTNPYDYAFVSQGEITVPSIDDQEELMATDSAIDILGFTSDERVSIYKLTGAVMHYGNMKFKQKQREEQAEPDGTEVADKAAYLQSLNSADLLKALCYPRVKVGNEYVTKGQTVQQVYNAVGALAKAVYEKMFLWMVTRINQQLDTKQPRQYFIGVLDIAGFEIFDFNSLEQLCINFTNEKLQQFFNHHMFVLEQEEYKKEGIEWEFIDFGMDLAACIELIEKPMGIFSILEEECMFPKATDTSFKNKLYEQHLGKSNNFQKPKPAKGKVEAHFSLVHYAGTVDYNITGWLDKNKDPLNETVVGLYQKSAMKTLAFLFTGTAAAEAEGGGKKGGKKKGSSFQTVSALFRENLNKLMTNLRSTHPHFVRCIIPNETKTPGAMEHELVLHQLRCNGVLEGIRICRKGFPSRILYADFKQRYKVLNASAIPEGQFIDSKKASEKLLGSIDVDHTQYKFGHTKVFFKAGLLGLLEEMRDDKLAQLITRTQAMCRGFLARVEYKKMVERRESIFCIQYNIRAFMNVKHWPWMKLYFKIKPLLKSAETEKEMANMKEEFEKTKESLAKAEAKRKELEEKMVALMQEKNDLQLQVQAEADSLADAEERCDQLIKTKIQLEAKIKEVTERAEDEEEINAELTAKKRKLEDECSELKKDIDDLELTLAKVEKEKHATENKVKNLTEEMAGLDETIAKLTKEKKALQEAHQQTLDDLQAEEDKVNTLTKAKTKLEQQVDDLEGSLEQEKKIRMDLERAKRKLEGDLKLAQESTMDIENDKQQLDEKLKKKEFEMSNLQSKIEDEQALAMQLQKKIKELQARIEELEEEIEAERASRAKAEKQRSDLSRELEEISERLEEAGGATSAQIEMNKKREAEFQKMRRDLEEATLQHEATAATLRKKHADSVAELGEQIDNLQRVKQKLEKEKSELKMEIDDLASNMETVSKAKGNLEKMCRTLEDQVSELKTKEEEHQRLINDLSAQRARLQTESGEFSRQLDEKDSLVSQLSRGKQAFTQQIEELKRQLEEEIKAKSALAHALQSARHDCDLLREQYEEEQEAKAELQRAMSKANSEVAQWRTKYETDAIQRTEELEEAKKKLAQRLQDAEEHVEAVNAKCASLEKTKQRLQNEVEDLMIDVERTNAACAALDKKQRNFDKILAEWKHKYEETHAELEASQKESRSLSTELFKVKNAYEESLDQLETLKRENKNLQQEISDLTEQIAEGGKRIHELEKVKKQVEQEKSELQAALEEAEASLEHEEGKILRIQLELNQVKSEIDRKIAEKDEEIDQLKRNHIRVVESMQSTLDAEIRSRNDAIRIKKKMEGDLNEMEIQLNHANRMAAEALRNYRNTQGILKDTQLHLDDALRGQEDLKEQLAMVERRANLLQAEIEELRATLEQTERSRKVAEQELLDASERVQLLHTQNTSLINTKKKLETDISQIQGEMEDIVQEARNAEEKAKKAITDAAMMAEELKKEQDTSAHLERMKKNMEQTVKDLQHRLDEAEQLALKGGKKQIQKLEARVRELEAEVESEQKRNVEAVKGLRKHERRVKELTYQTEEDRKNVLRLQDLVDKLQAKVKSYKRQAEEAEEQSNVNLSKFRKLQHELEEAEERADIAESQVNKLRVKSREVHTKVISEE

As usually defined, the stoichiometry N is a count of units in the complex or per binding partner. In turn, “D175N-Tm (α-tropomyosin homodimer with the D175N mutation in both chains) (natural protein)” yielded a stoichiometry N in assay [1] of 1.
Consider “myosin subfragment 1 (native rabbit skeletal) (domain or fragment)”, for which the kobs with Ca2+ in assay [2] was found to be 7 s^–1; in assay [3] it was 7.68 s^–1; in assay [4], 8.48 s^–1; in assay [5], 7.58 s^–1; in assay [6], 8.46 s^–1; in assay [7] it was 8 s^–1. The kobs without Ca2+ in assay [2] came out at 2 s^–1; in assay [3], 2.21 s^–1; in assay [4], 2.41 s^–1; in assay [5], 2.31 s^–1; in assay [6] it was 2.71 s^–1; in assay [7], 2.31 s^–1.
